Laboratory results taken from the RNAGym collection of RNA variant scans (doi:10.1073/pnas.2313332121).

B1: TPR t1 (parent)
chain: GACCAAUCUGCCCUCAGAGCUCGAGAACAUCUUCGGAUGCAGAGGAGGCAGGCUUCGGUGGCGCGAUAGCGCCAACGUCCUCAACCUCCAAUGCAUCCCACCACAUGAUGAUGCCUGAAGAGCCUUGGUUUUUUG

Variants of: B1
Test: polymerase ribozyme fitness, log enrichment relative to wild type (log ratio); higher = more active; in vitro selection for triplet polymerase activity
Procedure, shortened: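 Fitness measures genotype enrichment against wild-type enrichment on a logarithmic scale, with inverse-variance-weighted averaging of replicates. The logarithm is base 2, and genotypes were kept only with ≥10 input reads and ≥1 read per output in Illumina sequencing. The sequenced libraries came from one triplicate in vitro selection round, including frozen incubation at −7 °C, of PCR-built, transcribed mutant libraries of each subunit of a heterodimeric triplet polymerase ribozyme.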

Row | Variant | polymerase ribozyme fitness (log ratio)
1 | GACCAAUCUGCCCUCAGAGCUCGAGAACAUCUUCGGAUGCAGAGGAGGCAGGCUUAGGUGGAGCGAUAGCGCCAACGCUCUCAACCUCCAAUGCAUCCCACCACAUGAUGAUGCCUGAAGAGCCUUGGUUUUUUG [C56A C62A U78C C79U] | -4.08
2 | GACCAAUCUGCCCUCAGAGCUCGAGAACAUCUUCGGAUGCAGAGGAGGCAGGCUUAGGUGGCGCGAUAGAGCCAACCUCCUCAACCUCCAAUGCAUCCCACCACAUGAUGAUGCCUGAAGAGCCUUGGUUUUUUG [C56A C70A G77C] | -3.23
3 | GACCAAUCUGCCCUCAGAGCUCGAGAACAUCUUCGGAUGCAGAGGAGGCAGGCUUAGGUGGGGCGAUAGCGCCAACGUCCUCAACCUUCAAUGCAUCCCACCACAUGAUGAUGCCUGAAGAGCCUUGGUUUUUUG [C56A C62G C88U] | -3.82
4 | GACCAAUCUGCCCUCAGAGCUCGAGAACAUCUUCGGAUGCAGAGGAGGCAGGCUUAGGUGGCGCGAUAGCGCCAACGUCCUCAACCUCCAAUGCAUCCCACCACGUGAUGCUACCUGAAGAGCCUUGGUUUUUUG [C56A A105G A111C G113A] | -5.31
5 | GACCAAUCUGCCCUCAGAGCUCGAGAACAUCUUCGGAUGCAGAGGAGGCAGGCUUAGGUGGCGCGAUAGAGCCAACGUCCUCAACCUCCAAUGCAUCCCACCACAUGAUGAUGCCUGAAGAGCCUUGGUUUUUUG [C56A C70A] | -2.72
6 | GACCAAUCUGCCCUCAGAGCUCGAGAACAUCUUCGGAUGCAGAGGAGGCAGGCUUAGGUGGCGCGAUAGCGCCAACGUCCUCAACCUCCAAUGCAUCCCACCACAUGGUGAUGCCUUAAGAGCCUUGGUUUUUUG [C56A A108G G117U] | -3.81
7 | GACCAAUCUGCCCUCAGAGCUCGAGAACAUCUUCGGAUGCAGAGGAGGCAGGCUUAGGUGGUGCGAUAGCGCCAACGUCCUCAAUCUCCAAUGCAUCCCACCACAUGAUGAUGCCUGAAGAGCCUUGGUUUUUUG [C56A C62U C85U] | -1.64
8 | GACCAAUCUGCCCUCAGAGCUCGAGAACAUCUUCGGAUGCAGAGGAGGCAGGCUUAGGUGGCGCGAUAGCGCCAACGUCCUCAACCUCCAAUGCCUCCCACCACAAGAUGAUGCCUGAAGAGCCUUGAUUUUUUG [C56A A95C U106A G128A] | -3.3
9 | GACCAAUCUGCCCUCAGAGCUCGAGAACAUCUUCGGAUGCAGAGGAGGCAGGCUUAGGUGGCGCGAUAGCGGCAACCUCCUCAACCUCCAAUGCAUCUCACCACAUGAUGAUGCCUGAAGAGCCUUGAUUUUUUG [C56A C72G G77C C98U G128A] | -3.6
10 | GACCAAUCUGCCCUCAGAGCUCGAGAACAUCUUCGGAUGCAGAGGAGGCAGGCUUAGGUGGCGCGAUAGCGCCAACGUCCUCAACCUCCAAUGCAUCCCACCACAUGAUGAUGCCUGAAGCGCCUUGGUUUUUUG [C56A A121C] | 0.751
11 | GACCAAUCUGCCCUCAGAGCUCGAGAACAUCUUCGGAUGCAGAGGAGGCAGGCUUAGGUGGCGCGAUAGCGCCAACGUCCUCAACCUCCAAUGCAUCCCACCACCUGAUGAUGCCUGAAGAGCCUUGGUUUUUUG [C56A A105C] | -3.61
12 | GACCAAUCUGCCCUCAGAGCUCGAGAACAUCUUCGGAUGCAGAGGAGGCAGGCUUAGGUGGCGUGAUAGCGCCAACGUCCUCAACCUCCAAUGCAUCCCACCACAUGAUGAUGCCUGAACAGCCUUGGUUUUUUG [C56A C64U G120C] | -2.77
13 | GACCAAUCUGCCCUCAGAGCUCGAGAACAUCUUCGGAUGCAGAGGAGGCAGGCUUAGGUGGCGAGAUAGCGCCAACGUCCUCAACCUCCAAUACAUCCCACCAAAUGAGGCUGCCUGAAGAGCCUUGGUUUUUUG [C56A C64A G93A C104A U109G A111C] | -5.87
14 | GACCAAUCUGCCCUCAGAGCUCGAGAACAUCUUCGGAUGCAGAGGAGGCAGGCUUAGGUGGCGCGAUAGUGCCAACGUCUUCAACCUCCAAUGCAUCCCACCACAUGAUGAUGCCUGAACAGGCUUGGUUUUUUG [C56A C70U C80U G120C C123G] | -1.95
15 | GACCAAUCUGCCCUCAGAGCUCGAGAACAUCUUCGGAUGCAGAGGAGGCAGGCUUAGGUGGCGUGAUAGCGCCAACGUCCUCAACCUCCAAUGCAUCCCACCACAUGAUGAUGACUGAAGAGCCUUGGUUUUUUG [C56A C64U C114A] | -2.59
16 | GACCAAUCUGCCCUCAGAGCUCGAGAACAUCUUCGGAUGCAGAGGAGGCAGGCUUAGGUGGCGCGAUAGCGACAAUGUCCUCAACCUCCAAUGCAUCCCACCACAUGAUGAUGCCGGAAGAGCCUUGGUUUUUUG [C56A C72A C76U U116G] | -3.97
17 | GACCAAUCUGCCCUCAGAGCUCGAGAACAUCUUCGGAUGCAGAGGAGGCAGGCUUAGGUGGCGUGAUAGCGCCAACGUCCUCAACCUCCAAUGCAUCCCACCACAUGAUGAUGCAUGAAGAGCCUCGGUUUUUUG [C56A C64U C115A U126C] | -2.05
18 | GACCAAUCUGCCCUCAGAGCUCGAGAACAUCUUCGGAUGCAGAGGAGGCAGGCUUAGGUGGGGCGAUAGCGCCAACGUCCUCAACCUCCAAUGCAUCCCACCACAUGAUGAUGCCUGAAGAGCCUUGGUUUUUUG [C56A C62G] | -3.98
19 | GACCAAUCUGCCCUCAGAGCUCGAGAACAUCUUCGGAUGCAGAGGAGGCAGGCUUAGGUGGUGCGAUAGCGCCAACGUCCUCAACCUCCAAUGCAUCCCACCACAUGAUGAUGCCUGAAGAGCCUUGGUUUUUUG [C56A C62U] | -0.164
20 | GACCAAUCUGCCCUCAGAGCUCGAGAACAUCUUCGGAUGCAGAGGAGGCAGGCUUAGGUGGCGCGAUAGCGCCAACGUCCUCAACCUCCAAUGCAUCCCACCACAUGAUGUUGCCUGAAGAGCCUUGGUUUUUUG [C56A A111U] | -3.34
21 | GACCAAUCUGCCCUCAGAGCUCGAGAACAUCUUCGGAUGCAGAGGAGGCAGGCUUAGGUGGCGCGAUAGCGCCAACGUCCUCAACCUCCAAUGCAUCCCACCACAUGAUGCUGCCUGAAGAGCCUUGGUUUUUUG [C56A A111C] | -0.279
